Test results: patent US9879094B2, “Nucleic acid molecules encoding for BACE1 antibodies” (Genentech, Inc., priority 2010, dated 2018)
Where “and” joins values, the source holds several entries; their conditions need not be identical. Equal values may be shown once.

Tests used:
[1] = system: E16.5 cortical neurons and E16.5 hippocampal neurons; test: Aβ40 production in cortical and hippocampal neurons; assay type: cell-based, mouse; settings: 24 hours
Experimental: Similar studies were also performed in dorsal root ganglia, cortical neurons and hippocampal neurons isolated from mice. Briefly, dissociated neuronal cultures were prepared from E13.5 dorsal root ganglia (DRG), E16.5 cortical neurons and E16.5 hippocampal neurons. Neurons were grown for five days in vitro. Fresh media containing YW412.8.31 anti-BACE antibody or control IgG1 was incubated with the neurons for 24 hours. Media was harvested and assayed for the presence of Aβ40 using the MSD® Rodent/Human (4G8) A1340 Ultrasensitive kit according to the Manufacturer's instructions. Aβ40 values were normalized for cell viability, as determined using the CellTiter-Glo Luminescent Cell Viability Assay (Promega). The experiment was performed at least three times, and each point was repeated in duplicate. Data was plotted using a four-parameter non-linear regression curve-fitting program (Kaleidagraph, Synergy Software).

[2] = Antibody concentration in monkey serum and CSF; assay type: in vivo, Cynomolgus monkey; settings: 30 mg/kg IV
Experimental: (§1) Cynomolgus monkeys were dosed with control IgG or YW412.8.31 anti-BACE1 antibody (30 mg/kg) by IV delivery. Plasma and CSF were sampled up to 7 days prior to dosing to set mean baseline Aβ1-40 levels in each in individual animal, and then at various times after dosing. Total anti-BACE1 or control antibody concentrations in monkey serum and CSF samples were measured using monkey-adsorbed goat anti-human IgG polyclonal antibody (Bethyl, Montgomery, Tex.) as both coat and detection (FIG. 20). Free anti-BACE1 antibody concentrations in monkeys were determined using BACE1 ECD as coat and the monkey-adsorbed goat anti-human IgG antibody (Bethyl) for detection.

[3] = system: Aβ1-40 in Cynomolgus monkeys; test: Cynomolgus monkeys, single IV dose, Aβ1-40 in plasma and CSF; assay type: in vivo, Cynomolgus monkey; settings: 30 mg/kg IV
Experimental: as §1
Aβ1-40 levels in plasma and CSF from Cynomolgus monkeys tested was also determined. Briefly, the concentrations of total cyno Aβ1-40 in plasma were determined using MSD MA6000 Human (6E10) Abeta Kit (Cat#K111BVE-2, Meso Scale Diagnostics) according to the Manufacturer's instructions. The capture antibody, specific for the C terminus of Aβ1-40, was pre-coated on the plates, and Sulfo-Tag anti-Aβ monoclonal antibody 6E10 was used for detection. The assay had lower limit of quantification values of 49.4 pg/ml in plasma. The concentrations of total cyno Aβ1-40 in CSF were determined using a sandwich ELISA. […]

[4] = Antibody concentration in brain of hAPP transgenic mice; assay type: in vivo, mouse
Experimental: Briefly, 5-month old human APP-expressing mice were treated with 30 mg/kg or 100 mg/kg YW412.8.31 antibody or vehicle by intra-peritoneal injection every four days for a total of three doses (i.e., at days 1, 5, and 9). Animals were euthanized two hours post the final dose. Serum, plasma, and brains were harvested and processed. Plasma, cortex and hippocampus were analyzed for levels of soluble Aβ1-40 and Aβ1-42 using an Amyloid beta (Aβ) ELISA test kit per manufacture's instructions (The Genetics Company). Pharmacokinetic analysis was performed on serum and brain homogenates.
Similar experiments were also performed in which YW412.8.31 anti-BACE1 antibody was delivered systemically or directly into hAPP transgenic mice brains by continuous ICV infusion. For ICV delivery, antibody was delivered continuously for 7 days via an Alzet osmotic minipump (model 2001) implanted unilaterally. The amount of YW412.8.31 antibody delivered was 0.041 mg/day (low dose) or 0.41 mg/day (high dose); 0.33 mg/day Control IgG was delivered to the control group. At euthanasia, plasma, cortex, and hippocampus were harvested and analyzed for levels of soluble Aβ1-40 and Aβ1-42 by ELISA (The Genetics Company) following manufacturer's instructions.
Total anti-BACE1 antibody concentrations in mouse serum and brain samples were measured as follows. Antibody concentrations in mouse serum and brain samples were measured using an enzyme-linked immunosorbent assay (ELISA). NUNC 384 well Maxisorp immunoplates (Neptune, N.J.) were coated with F(ab′)2 fragment of donkey anti-human IgG, Fc fragment specific polyclonal antibody (Jackson ImmunoResearch, West Grove, Pa.) overnight at 4° C. Plates were blocked with phosphate-buffered saline (PBS) containing 0.5% bovine serum albumin (BSA) for 1 hour at room temperature the next day. Each antibody (Control IgG and anti-BACE1) was used as a standard to quantify the respective antibody concentrations. After washing plates with PBS containing 0.05% Tween 20 using a microplate washer (Bio-Tek Instruments, Inc., Winooski, Vt.), standards and samples diluted in PBS containing 0.5% BSA, 0.35 M NaCl, 0.25% CHAPS, 5 mM EDTA, 0.05% Tween 20 and 15 ppm Proclin were incubated on plates for 2 hours at room temperature with mild agitation. Bound antibody was detected with horseradish peroxidase conjugated F(ab′)2 goat anti-human IgG, Fc specific polyclonal antibody (Jackson ImmunoResearch). Finally, plates were developed using the substrate 3,3′,5,5′-tetramethyl benzidine (TMB) (KPL, Inc., Gaithersburg, Md.). Absorbance was measured at a wavelength of 450 nm with a reference of 630 nm on a Multiskan Ascent reader (Thermo Scientific, Hudson, N.H.). Concentrations were determined from the standard curve using a four-parameter non-linear regression program.

[5] = system: 293-HEK cells stably expressing wild-type human amyloid precursor protein; test: Aβ1-40 production in 293-HEK cells expressing APP; assay type: cell-based
Experimental: To determine whether the observed in vitro inhibitory action of the anti-BACE1 antibodies on APP processing was also present in a cellular context, […]. The ability of the antibodies to inhibit Aβ1-40 production in 293-HEK cells stably expressing wild-type human amyloid precursor protein was assessed as follows. 293-APP^WT cells were seeded overnight at a density of 3×10^4 cells/well in a 96-well plate. […] of fresh media (DMEM+10% FBS) containing an anti-BACE1 antibody or a control IgG1 antibody was incubated with the cells for 24 hours at 37° C. A tricyclic small molecule BACE1 inhibitor (BACE1 SMI) was also used as a control ((Compound 8e—Charrier, N. et al. J. Med. Chem. 51:3313-3317 (2008)). The cellular media was harvested and assayed for the presence of Aβ1-40 using a Aβ1-40 HTRF® assay (CisBio) according to the manufacturer's instructions. Aβ1-40 values were normalized for cell viability, as determined using the CellTiter-Glo Luminescent Cell Viability Assay (Promega). Experiments were performed at least three times, and each point in each experiment was repeated in duplicate. Data was plotted using a four-parameter non-linear regression curve-fitting program (Kaleidagraph, Synergy Software).

B1: YW412.8.31: affinity matured form of YW412.8 anti-BACE1 antibody (antibody, V domains shown)
VH: EVQLVESGGGLVQPGGSLRLSCAASGFTFLGYGIHWVRQAPGKGLEWVGWISPAGGSTDYADSVKGRFTISADTSKNTAYLQMNSLRAEDTAVYYCARGPFSPWVMDYWGQGTLVTVSS
VL: DIQMTQSPSSLSASVGDRVTITCRASQDVSTAVAWYQQKPGKAPKLLIYSASFLYSGVPSRFSGSGSGTDFTLTISSLQPEDFATYYCQQFPTYLPTFGQGTKVEIK
- IC50 [1]: ~2.5 nM
- concentration in CSF [2]: 0.2-0.3 μg/ml and ~2 nM
- peak serum antibody concentration ([2]; 15 minutes post administration): ~800 µg/mL
- serum antibody concentration ([2]; 7 days post-dose): 232 µg/mL
- reduction of CSF Aβ1-40 ([3]; 1 and 3 days following dosing): up to 50%
- reduction of plasma Aβ1-40 from baseline ([3]; sustained over 7 days): ~50%
- ANTIBODY CONCENTRATION IN BRAIN ([4]; systemic delivery 30 mg/kg): 0.7 μG/G
- antibody concentration in brain ([4]; systemic delivery 30 mg/kg): 4.8 ± 3.6 nM and 4.8 nM
- ANTIBODY CONCENTRATION IN BRAIN ([4]; systemic delivery 100 mg/kg): 2.1 μG/G
- antibody concentration in brain ([4]; systemic delivery 100 mg/kg): 14.0 ± 9.3 nM and 14 nM
- inhibition of Aβ1-40 production ([5]; 24 hours, compared to non-BACE1 IgG (Xolair)): inhibited
- maximum reduction of Aβ1-40 production ([5]; APP-expressing 293 cells): ~90%
